EC50 and Kd data for three molecules are collected here from patent publication CN107043423A (JIANGSU HENGRUI MEDICINE CO; SHANGHAI HENGRUI …, dated 2017).

Assay [1] has as its target T1, 带His标签的人凝血酶 (human, UniProt P00734 328-622). Briefly: ELISA, biotinylated His-tagged human thrombin on streptavidin plate.
For assay [2], the target named is T1, 带His标签的人凝血酶. Briefly: BIAcore SPR, antibody captured by anti-human capture antibody on CM5 chip, His-tagged thrombin in flow.
The target of assay [3] is T2, 带His标签的人凝血酶原 (human, UniProt P00734 44-622).
T2 construct: Zymogen precursor of thrombin, expressed in HEK293E; also called h-prothrombin-his; 人Pro凝血酶
As to the kind of experiment: BIAcore SPR, antibody captured by anti-human capture antibody on CM5 chip, His-tagged prothrombin in flow.

B1: 人源化抗体H1512-8 (antibody, human IgG4 S228P, kappa, V domains shown)
VH: EVQLVESGGGLVQPGGSLRLSCAASGFTVSNYDMSWVRQAPGKGLEWVSMIETDGSIFHASWVNGRFTISRDNSKNTLYLQMNSLRAEDTAVYYCARGSNDYDAYGYPYFTLWGQGTLVTVSS
VL: ELVLTQSSSASASLGSSVKLTCTLSSAHETYTIDWYQQQPGKAPRYLMELKSDGSYNKGAGVPDRFSGSSSGADRYLTISNLQLEDEATYHCGADFSDGYVFGGGTKVEIKR
notes: Humanized antibody
B1 gave an EC50 in assay [1] of 19.3 nM.

B2: 人源化抗体H1512-12 (antibody, human IgG4 S228P, kappa, V domains shown)
VH: EVQLVESGGGLVQPGGSLRLSCAASGFTVSNYDMSWVRQAPGKGLEWIGMIETDGSIFHASWVNGRFTISKDNSKNTVYLQMNSLRAEDTAVYFCVRGSNDYDAYGYPYFTLWGQGTLVTVSS
VL: QLVLTQSSSASASLGSSVKLTCTLSSAHETYTIDWYQQQPGKAPRYLMELKSDGSYNKGAGVPDRFSGSSSGADRYLTISNLQLEDEATYHCGADFSDGYVFGGGTKVEIKR
notes: Humanized antibody; also called 抗凝血酶抗体H1512-12
For B2, the Kd in assay [2] worked out at 2.79 nM; in assay [3], 26.4 nM. Also, the EC50 in assay [1] was determined as 0.16 nM.

B3: 人源化抗体H1512-1 (antibody, human IgG4 S228P, kappa, V domains shown)
VH: EVQLVESGGGLVQPGGSLRLSCAASGFTVSNYDMSWVRQAPGKGLEWVSMIETDGSIFHASWVNGRFTISRDNSKNTLYLQMNSLRAEDTAVYYCARGSNDYDAYGYPYFTLWGQGTLVTVSS
VL: QPVLTQSSSASASLGSSVKLTCTLSSAHETYTIDWHQQQPGKAPRYLMKLKSDGSYNKGAGVPDRFSGSSSGADRYLTISNLQLEDEADYYCGADFSDGYVFGGGTKVEIKR
notes: Humanized antibody
In assay [1], B3 registered an EC50 of 43.4 nM.
